Laboratory results: the MegaScale stability set (Tsuboyama et al. 2023)

B1: 2M8U (parent)
chain: TKAQVIEAFKVFDRDGNGYVTVDYLRKVLNELGDMMPADEIEEMIYEADPQNSGYVQYETFVGMLFL

Variants of: B1
Assay: folding stability dG (cDNA display proteolysis); higher = more stable
Settings: PBS, room temperature

Folding stability dG [kcal/mol] of substitutions, site by site:
E40: K 3.91 | F 3.99 | W 3.75 | I 3.91 | C 3.85 | A 3.65 | M 3.66 | S 3.7 | Y 4.06 | L 3.89 | T 3.78 | Q 3.64 | H 4.01 | R 3.96 | G 4.01 | P 3.22 | D 3.69 | V 3.74 | N 4.09
A48: Q 3.37 | Y 3.48 | E 2.78 | T 3.33 | P 2.25 | I 3.33 | W 3.34 | N 3.44 | G 2.64 | L 3.45 | R 2.9 | M 3.28 | F 3.44 | K 2.63 | C 3.84 | V 3.28 | D 2.1 | S 3.53 | H 3.68
G54: A 2.36 | T 2.35 | M 2.59 | V 2.48 | P 2.26 | Q 2.29 | L 2.48 | E 2.26 | F 2.89 | H 2.49 | W 2.82 | S 2.48 | D 2.06 | I 2.76 | K 2.47 | C 2.59 | Y 2.93 | N 2.9 | R 2.56
E47: P 2.33 | W 3.76 | A 3.76 | R 4.15 | D 3.49 | N 3.52 | I 3.92 | C 3.66 | H 3.8 | M 3.87 | T 3.73 | L 3.88 | F 3.75 | Y 3.51 | S 3.71 | Q 3.96 | V 3.85 | K 4.09 | G 3.5
Y55: N 3.16 | M 3.51 | L 3.35 | K 3.25 | Q 3.48 | H 3.22 | G 2.16 | D 2.22 | C 3.44 | I 3.37 | A 2.82 | P 1.77 | F 3.35 | E 3.05
E43: Q 3.9 | C 3.74 | T 3.73 | D 3.6 | S 3.74 | A 3.81 | K 3.75 | F 3.8 | N 3.64 | P 3.54 | W 3.87 | V 3.78 | I 3.87 | R 4.37 | H 4.05 | G 3.58 | L 3.73 | M 3.82 | Y 3.69
S53: K 3.39 | C 3.18 | Q 3.28 | L 3.2 | R 3.35 | H 3.11 | N 3.26 | I 3.21 | D 3.02 | A 3.19 | V 3.15 | M 3.23 | E 3.09 | P 2.4 | Y 3.2 | F 3.16 | G 2.94 | W 3.22 | T 3.49
N52: I 3.03 | C 3.42 | D 3.37 | L 3.36 | H 3.46 | M 3.42 | K 3.4 | V 3.26 | Q 3.47 | T 3.32 | P 2.43 | F 3.52 | W 3.1 | Y 3.31 | R 3.57 | E 3.38 | S 3.57 | G 3.51 | A 3.38
M44: A 3.48 | Q 2.95 | P 1.8 | H 3.52 | I 3.05 | R 3.66 | T 2.97 | F 3.09 | D 2.25 | K 3.56 | C 3.6 | S 2.96 | E 2.18 | L 3.65 | N 2.88 | V 3.07 | W 3.21 | Y 3.21 | G 2.53
I45: P 1.88 | N 2.17 | E 2.15 | K 2.41 | M 2.88 | W 2.6 | A 2.37 | R 2.06 | S 2.16 | F 2.61 | L 3.19 | T 2.13 | G 2.2 | Y 2.5 | D 2.39 | C 2.67 | H 2.08 | Q 1.91 | V 3
D49: V 2.58 | F 2.43 | R 2.21 | H 2.3 | Y 2.67 | L 2.43 | C 2.7 | W 2.66 | T 2.83 | Q 2.53 | S 2.93 | P 2.15 | E 2.25 | N 2.75 | G 2.36 | K 2.14 | A 2.62 | M 2.71 | I 2.49
A38: G 3.41 | I 3.69 | M 3.76 | R 3.62 | L 3.59 | Y 3.5 | V 3.61 | N 3.45 | K 3.69 | P 3.47 | S 3.56 | F 3.53 | T 3.6 | H 3.57 | Q 3.69 | W 4
D39: I 3.83 | C 3.74 | G 3.77 | Q 3.59 | L 3.89 | R 3.75 | N 3.68 | Y 3.86 | S 3.52 | A 3.7 | K 3.79 | F 4.09 | E 3.59 | T 3.66 | H 3.71 | M 3.92 | P 3.68 | W 3.65 | V 4.01
Q51: D 3.56 | S 3.49 | A 3.47 | L 3.53 | E 3.48 | G 3.43 | P 2.52 | C 3.71 | F 3.58 | Y 3.62 | K 3.45 | N 3.46 | V 3.34 | I 3.31 | M 3.49 | R 3.3 | T 3.56 | H 3.54 | W 3.49
E42: Y 2.97 | G 3.04 | V 3.01 | M 3.3 | T 3.41 | F 3.06 | I 3.25 | S 3.29 | Q 3.37 | H 3.01 | R 3.14 | A 3.26 | K 3.22 | W 3.1 | N 3.49 | L 3.16 | P 2.64 | D 3.37 | C 3.11
I41: T 2.72 | Y 3.35 | D 1.96 | R 3.03 | H 2.52 | F 3.5 | C 2.87 | N 2.17 | K 2.59 | E 2.29 | G 2.29 | P 1.98 | S 2.59 | V 3.4 | L 3.83 | Q 2.78 | A 2.86 | M 3.57 | W 3.72
P50: E 2.89 | D 2.9 | W 3.39 | F 3.05 | Y 3.06 | V 2.99 | L 3.21 | N 3.05 | M 3.05 | S 3.29 | A 3.3 | T 3.12 | G 3 | R 3.38 | Q 3.25 | C 3.11 | I 3.23 | K 3.39 | H 3.07
Y46: A 3.52 | I 3.47 | H 3.62 | N 3.57 | F 3.55 | K 3.64 | D 3.29 | Q 3.66 | P 2.82 | M 3.58 | G 3.44 | S 3.52 | L 3.44 | T 3.62 | V 3.5 | C 3.46 | R 3.66 | E 3.36 | W 3.56
